The labels stand for the following.
B1: iBox24C (peptide)
chain: SRQPLVLGDNCFADLVHNWMELPE
modifications: synthetic peptide; taken as the C-terminal 24 residues (paper numbering 180-203) of the 38-aa iBox; 4XBR position = Inka1 paper number minus 153; exact limits are only in Fig. 1d
B2: iBox-C24 (peptide)
chain: VSRFAALMSCRSRQPIICNDVSYL
modifications: synthetic peptide; exact limits are only in Fig. 1d; taken as the last 24 residues because the text gives a 24mer of iBox-C (C-terminal 22 aa of Inka1)
B3: GST-iBox (Inka1 166–203) (domain or fragment)
chain: EAEDWTAALLNRGRSRQPLVLGDNCFADLVHNWMELPE
modifications: GST carrier left out. Limits 166-203 are the paper's, taken from the 4XBR fusion: Flag/SGS 1-12, iBox 13-50, EF linker 51-52, PAK4 278-591 from 53 (12+38+2+314=366). Entity position = paper number - 153 (F191=F38, L194=L41, V195=V42, P(0)=P30). The paper's Inka1 numbering may differ from UniProt Q96EL1 (paper's C-terminus is 285, entry is 287 aa).

6His–PAK4cat (PAK4 286–591), sequence (O96013 286-591): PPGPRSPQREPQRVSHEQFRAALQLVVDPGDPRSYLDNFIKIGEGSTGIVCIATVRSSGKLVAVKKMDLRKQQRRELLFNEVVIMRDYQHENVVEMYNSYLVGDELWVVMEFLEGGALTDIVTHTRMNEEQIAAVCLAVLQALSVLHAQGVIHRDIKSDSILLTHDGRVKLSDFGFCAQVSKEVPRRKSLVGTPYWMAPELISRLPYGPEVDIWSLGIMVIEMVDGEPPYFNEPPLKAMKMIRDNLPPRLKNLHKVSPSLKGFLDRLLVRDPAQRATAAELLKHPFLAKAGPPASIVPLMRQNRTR

This experiment addresses 6His–PAK4cat (PAK4 286–591) (human, UniProt O96013 286-591). The experiment in a line: kinase activity inhibition (GST-Raf13 phosphorylation).
As to AEDWTAALLNRGRSRQPLVLGDW [iBox 23mer synthetic peptide], the IC50 stood at 0.229 µM.
Next, B1: 0.382 µM; B2: 0.3 µM.
In turn, B3 returned an IC50 of 0.036 µM.
